The values below come from the supplement of paper PMC9112550, “Optimization of the antimicrobial peptide Bac7 by deep mutational scanning” (BMC Biology, 2022).

The data set concerns Escherichia coli TOP10. Put plainly: shrunken log2 fold change of peptide-encoding DNA abundance (4.5 h post-induction vs induction); higher = less antimicrobial activity (less host growth inhibition). The following applies: time post-induction: 4.5 h; library: site-saturation at positions 5, 18, 19, 20.
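Note: peptides expressed intracellularly from a pBAD plasmid library in pooled LB shake-flask culture, induced with 0.3% L-arabinose, DNA abundance read by NGS, three biological replicates, DESeq2 with apeglm shrinkage.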

Turning to RRIRKRPPRLPRPRPRPVMKPRP, the “shrunken log2 fold change” value came out at 0.535. Regarding RRIRRRPPRLPRPRPRPYVRPRP, the “shrunken log2 fold change” value was -0.867.

As for RRIRLRPPRLPRPRPRPVGHPRP, the “shrunken log2 fold change” value was found to be 0.306. The result for RRIRGRPPRLPRPRPRPQDEPRP reads 0.111; that for RRIRLRPPRLPRPRPRPDVWPRP, 0.127. Turning to RRIRKRPPRLPRPRPRPHEHPRP, the “shrunken log2 fold change” value worked out at 0.0272. Under RRIRRRPPRLPRPRPRPFFEPRP stands 0.18; under RRIRVRPPRLPRPRPRPRNVPRP, -0.192; under RRIRWRPPRLPRPRPRPAMEPRP, 0.348. Turning to RRIRSRPPRLPRPRPRPYKIPRP, the “shrunken log2 fold change” value was -0.846.

As to RRIRIRPPRLPRPRPRPMVRPRP, the “shrunken log2 fold change” value is -0.0105. Regarding RRIRGRPPRLPRPRPRPNQVPRP, the “shrunken log2 fold change” value is 0.195. RRIRRRPPRLPRPRPRPTPWPRP: the “shrunken log2 fold change” value was determined as 0.841. Under RRIRVRPPRLPRPRPRPHYWPRP stands -0.336; under RRIRSRPPRLPRPRPRPASIPRP, 7.54e-05; under RRIRSRPPRLPRPRPRPFSRPRP, -0.347. As to RRIRFRPPRLPRPRPRPTEWPRP, the “shrunken log2 fold change” value came to 0.00734. RRIRYRPPRLPRPRPRPGEIPRP: the “shrunken log2 fold change” value was -0.0481. Turning to RRIRCRPPRLPRPRPRPCHNPRP, the “shrunken log2 fold change” value is -0.734.

Regarding RRIRARPPRLPRPRPRPCNPPRP, the “shrunken log2 fold change” value is -0.0307. As for RRIRWRPPRLPRPRPRPAPEPRP, the “shrunken log2 fold change” value is 0.603. As for RRIRGRPPRLPRPRPRPDTRPRP, the “shrunken log2 fold change” value came out at 0.162. The result for RRIRRRPPRLPRPRPRPQYSPRP reads -0.108; that for RRIRKRPPRLPRPRPRPMGVPRP, 0.196; that for RRIRYRPPRLPRPRPRPPANPRP, 0.169.

In the case of RRIRYRPPRLPRPRPRPHVAPRP, the “shrunken log2 fold change” value is -0.312. As for RRIRERPPRLPRPRPRPFDAPRP, the “shrunken log2 fold change” value is -0.0912.

Turning to RRIRDRPPRLPRPRPRPDYVPRP, the “shrunken log2 fold change” value was -0.0518. The result for RRIRPRPPRLPRPRPRPHLCPRP reads 0.0476. The result for RRIRVRPPRLPRPRPRPIESPRP reads -0.0725; that for RRIRPRPPRLPRPRPRPVCSPRP, -0.168; that for RRIRVRPPRLPRPRPRPHYIPRP, -0.589.

Consider RRIRPRPPRLPRPRPRPRAHPRP, for which the “shrunken log2 fold change” value was determined as 0.345. Under RRIRQRPPRLPRPRPRPCMRPRP stands 0.0607. Under RRIRNRPPRLPRPRPRPVWYPRP stands -0.326; under RRIRMRPPRLPRPRPRPAPRPRP, 1.72. As to RRIRWRPPRLPRPRPRPKPLPRP, the “shrunken log2 fold change” value was found to be 0.375.

For the sequence RRIRQRPPRLPRPRPRPIFYPRP, the “shrunken log2 fold change” value is -0.418. Take RRIRNRPPRLPRPRPRPSGRPRP: the “shrunken log2 fold change” value is -0.0659.

On to RRIRCRPPRLPRPRPRPLDDPRP, for which the “shrunken log2 fold change” value is -0.119.

RRIRTRPPRLPRPRPRPMCIPRP: the “shrunken log2 fold change” value is -0.649. On to RRIRRRPPRLPRPRPRPKRAPRP, for which the “shrunken log2 fold change” value was found to be 0.52. For the sequence RRIRMRPPRLPRPRPRPTNNPRP, the “shrunken log2 fold change” value was -0.0518.

As for RRIRDRPPRLPRPRPRPVEYPRP, the “shrunken log2 fold change” value stood at 0.0163.

For RRIRERPPRLPRPRPRPTEKPRP, the “shrunken log2 fold change” value turned out to be 0.154. The result for RRIRMRPPRLPRPRPRPFMTPRP reads 0.0622; that for RRIRIRPPRLPRPRPRPTVPPRP, 0.185. Under RRIRHRPPRLPRPRPRPWYHPRP stands -1.53; under RRIRRRPPRLPRPRPRPIWYPRP, 0.00744; under RRIRVRPPRLPRPRPRPCRKPRP, 0.068.

Consider RRIRTRPPRLPRPRPRPGCHPRP, for which the “shrunken log2 fold change” value was -0.136. Under RRIRIRPPRLPRPRPRPWISPRP stands -0.0286. Regarding RRIRGRPPRLPRPRPRPRNFPRP, the “shrunken log2 fold change” value was 0.197.

With RRIRNRPPRLPRPRPRPQQHPRP, the “shrunken log2 fold change” value is -0.111. Regarding RRIRCRPPRLPRPRPRPNGAPRP, the “shrunken log2 fold change” value is -0.0129. The result for RRIRARPPRLPRPRPRPNDVPRP reads 0.128. Under RRIRTRPPRLPRPRPRPRMHPRP stands 0.0254. Under RRIRVRPPRLPRPRPRPINYPRP stands -0.348; under RRIRRRPPRLPRPRPRPDAEPRP, 1.62.

Regarding RRIRNRPPRLPRPRPRPTFMPRP, the “shrunken log2 fold change” value is -0.401.

As for RRIRPRPPRLPRPRPRPYCMPRP, the “shrunken log2 fold change” value is -0.505.

As to RRIRWRPPRLPRPRPRPWPKPRP, the “shrunken log2 fold change” value is 0.322. For RRIRGRPPRLPRPRPRPANRPRP, the “shrunken log2 fold change” value was found to be 0.0838. As to RRIRVRPPRLPRPRPRPRTQPRP, the “shrunken log2 fold change” value was 0.0785. As to RRIRIRPPRLPRPRPRPLCWPRP, the “shrunken log2 fold change” value is -0.0614.

Turning to RRIRCRPPRLPRPRPRPDWYPRP, the “shrunken log2 fold change” value is -0.241. The result for RRIRGRPPRLPRPRPRPRSSPRP reads 0.128; that for RRIRTRPPRLPRPRPRPPNLPRP, 0.0303; that for RRIRTRPPRLPRPRPRPWAVPRP, -0.0894.

As to RRIRVRPPRLPRPRPRPEVGPRP, the “shrunken log2 fold change” value came to 0.175. The result for RRIRVRPPRLPRPRPRPHWFPRP reads -0.11; that for RRIRKRPPRLPRPRPRPHMHPRP, -0.186; that for RRIRWRPPRLPRPRPRPDYTPRP, -0.0601. On to RRIRRRPPRLPRPRPRPMGMPRP, for which the “shrunken log2 fold change” value was found to be 0.747. Take RRIRYRPPRLPRPRPRPQWVPRP: the “shrunken log2 fold change” value was -0.0081.

For RRIRHRPPRLPRPRPRPRECPRP, the “shrunken log2 fold change” value was determined as 0.0559. Regarding RRIRGRPPRLPRPRPRPTGHPRP, the “shrunken log2 fold change” value is 0.448. For the sequence RRIRHRPPRLPRPRPRPSIRPRP, the “shrunken log2 fold change” value is -0.345.

As to RRIRDRPPRLPRPRPRPYEFPRP, the “shrunken log2 fold change” value amounted to 0.047.

With RRIRGRPPRLPRPRPRPVTDPRP, the “shrunken log2 fold change” value came to 0.394. Under RRIRLRPPRLPRPRPRPLTWPRP stands 0.0168. Under RRIRPRPPRLPRPRPRPMPEPRP stands -0.0242; under RRIRTRPPRLPRPRPRPCDPPRP, -0.072.

With RRIRHRPPRLPRPRPRPWYVPRP, the “shrunken log2 fold change” value is 0.00296.

As to RRIRFRPPRLPRPRPRPNCPPRP, the “shrunken log2 fold change” value turned out to be 0.0451.

Turning to RRIRRRPPRLPRPRPRPPACPRP, the “shrunken log2 fold change” value worked out at 0.619.

For the sequence RRIRVRPPRLPRPRPRPESTPRP, the “shrunken log2 fold change” value turned out to be 0.108. The result for RRIRYRPPRLPRPRPRPPFYPRP reads -0.789; that for RRIRKRPPRLPRPRPRPWMVPRP, 0.0578. In the case of RRIRTRPPRLPRPRPRPTDEPRP, the “shrunken log2 fold change” value amounted to 0.491. On to RRIRWRPPRLPRPRPRPHTIPRP, for which the “shrunken log2 fold change” value is -0.533. Take RRIRCRPPRLPRPRPRPWSYPRP: the “shrunken log2 fold change” value is -0.441. On to RRIRSRPPRLPRPRPRPRIHPRP, for which the “shrunken log2 fold change” value is -0.323. Under RRIRGRPPRLPRPRPRPVMEPRP stands 0.546; under RRIRYRPPRLPRPRPRPAGQPRP, 0.00356.

Turning to RRIRTRPPRLPRPRPRPYWTPRP, the “shrunken log2 fold change” value came to 0.0389. Under RRIRVRPPRLPRPRPRPNPFPRP stands -0.104. RRIRGRPPRLPRPRPRPQAWPRP: the “shrunken log2 fold change” value came out at 0.69.

With RRIRGRPPRLPRPRPRPHFVPRP, the “shrunken log2 fold change” value amounted to 0.466. Under RRIRVRPPRLPRPRPRPSYLPRP stands 0.753. Under RRIRMRPPRLPRPRPRPCEMPRP stands 0.084; under RRIRVRPPRLPRPRPRPNMPPRP, -0.0801; under RRIRARPPRLPRPRPRPRGCPRP, 0.822.

Regarding RRIRHRPPRLPRPRPRPSDNPRP, the “shrunken log2 fold change” value amounted to 0.129. In the case of RRIRDRPPRLPRPRPRPMKWPRP, the “shrunken log2 fold change” value amounted to 0.139. On to RRIRSRPPRLPRPRPRPIVHPRP, for which the “shrunken log2 fold change” value is -0.2. Under RRIRTRPPRLPRPRPRPRFQPRP stands 0.177; under RRIRARPPRLPRPRPRPWEQPRP, 0.248; under RRIRIRPPRLPRPRPRPIYWPRP, -0.105.

In the case of RRIRIRPPRLPRPRPRPIPTPRP, the “shrunken log2 fold change” value was -0.0342. The result for RRIRSRPPRLPRPRPRPYPDPRP reads -0.172; that for RRIRYRPPRLPRPRPRPSFWPRP, -0.122. Under RRIRHRPPRLPRPRPRPDCTPRP stands 0.0402; under RRIRCRPPRLPRPRPRPARNPRP, -0.182; under RRIRVRPPRLPRPRPRPTPMPRP, 0.259. Turning to RRIRERPPRLPRPRPRPGNCPRP, the “shrunken log2 fold change” value was 0.13.

RRIRWRPPRLPRPRPRPQWCPRP: the “shrunken log2 fold change” value was -0.0974.

On to RRIRHRPPRLPRPRPRPENTPRP, for which the “shrunken log2 fold change” value amounted to 0.0466. RRIRYRPPRLPRPRPRPPWVPRP: the “shrunken log2 fold change” value is -0.209. Take RRIRYRPPRLPRPRPRPRVQPRP: the “shrunken log2 fold change” value was -0.617. As for RRIRPRPPRLPRPRPRPCPVPRP, the “shrunken log2 fold change” value is -0.0845. Under RRIRNRPPRLPRPRPRPCTHPRP stands -0.147; under RRIRHRPPRLPRPRPRPLTLPRP, -0.193; under RRIRCRPPRLPRPRPRPVSKPRP, -0.109. Take RRIRSRPPRLPRPRPRPGMEPRP: the “shrunken log2 fold change” value turned out to be 0.148.
